Results as given in article doi:10.1101/333070.

Target: mouse proNGF (mouse) (UniProt P01139)
Assay: SAXS

stoichiometry N: 2
Substance: mouse proNGF (from UniProt P01139 19-241) (natural protein)
